Target: Cavβ3-I-II2.1 chimera (rat β3 subunit fused at its C-terminal end to the I-II loop of the rabbit Cavα2.1 subunit), [35S]-labelled (rat; rabbit) (UniProt P54287)
Test: Gβγ (10 to 900 nM) displaces the intramolecular Cavβ-AID2.1 binding of [35S] Cavβ3-I-II2.1; read as binding of the chimera to GST-AID1.2 after 30 min at 30 °C, SDS-PAGE and autoradiography

UniProt P54287, sequence (P54287 other isoform, or with tags, fused parts or gaps mutant): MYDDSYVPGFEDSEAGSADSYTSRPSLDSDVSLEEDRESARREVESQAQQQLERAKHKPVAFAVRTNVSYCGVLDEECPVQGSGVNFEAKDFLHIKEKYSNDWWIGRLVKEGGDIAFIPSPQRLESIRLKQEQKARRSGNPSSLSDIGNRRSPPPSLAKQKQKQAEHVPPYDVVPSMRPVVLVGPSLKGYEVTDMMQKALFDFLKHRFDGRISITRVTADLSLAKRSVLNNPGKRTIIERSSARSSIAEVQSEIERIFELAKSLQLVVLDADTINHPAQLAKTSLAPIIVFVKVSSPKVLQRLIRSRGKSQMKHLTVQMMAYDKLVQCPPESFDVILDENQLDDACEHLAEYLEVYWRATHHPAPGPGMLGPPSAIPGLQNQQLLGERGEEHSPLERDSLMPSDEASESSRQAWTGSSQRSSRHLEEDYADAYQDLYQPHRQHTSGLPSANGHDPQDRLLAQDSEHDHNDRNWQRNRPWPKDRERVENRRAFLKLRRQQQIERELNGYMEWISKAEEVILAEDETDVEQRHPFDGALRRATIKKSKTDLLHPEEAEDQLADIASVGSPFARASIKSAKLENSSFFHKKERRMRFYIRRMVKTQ

IC50: 160 nM
Substance: G-protein Gβγ complex (Calbiochem)

Source: patent US20070141665A1
